In a protein production outcome set (Wang et al. 2014) one finds protein production data, which are given here for 18 sequences.

The data set in a line: label from the status in PepcDB records.

Regarding “MSWFDDLFSNKENSDEELLRRKSKRRNGDLTQNKDDSLLPENNDIYDRPRGKFRFPIDVGQDENYEEAIYRDSNDDIGSYRPHSSNDHSSYDSFDYDGHTNQSNNYAKYDSSEDSRRRRRRNHINQDDTGIPSIKSRSPKSSNKYIDTRESQRFNKHQNNYSSTNVSNYSKANSNHQSRVKLQSERFKSNYHLSSEPTYHRSSFKTSEVPSAIFGTKKRRPIENGVIPPVKDDEDSKESITKYSSSTVEHVPHESNHAIADNSNKEDTKRSSQLDSSITIENESTIESSSNTSNNNERTPNYSKRDNTVNIENIYASQIVEEIRKERERKVQQKRKFKEALQNKRQQTDEEDSIQRAIDEMYAKQAEQYTGESSLNQGDNVSNKSNESEIDKSKHSYHSKDKSLVDEHNGLVQNQTDEQTNSDNVDNQTEVSNESHEPYNYEEIDLNQVSSVQQVRQDDVQVKDVLEEQSSKINNNKVESYSNEKFDDYLEDTNSHEEMLHDDDLHEQVMDDDENEGISNKTTDENNDEKIDDANYREINESESLMQDKANDLKFNDEVNNSENQQNSSENNINNAVRNAVSSDIEYATNEDEENDERLAQDTNKEDQKLSQSEDIQHESLNNEDVSLTSNKTDDSEHLEKDSLNEDKKAEPSFNKTNKAPQKMSIKPGSKPFNVVMTPSDKKRVMDAKKNSVSRNKVNVPELKPETKKEAQDEKMNAEFDNHLNESQLNSDESSDFNVASLEYNESSEHSVEKDNIINDENTRENEHQDVDNSQNNDMPKGNQFSKVQNSNNQNDNKHDINEFVSKEGYSEVTSTKNHKDGDDANHKAPIRRGPNIKLPSLDLLEDHEEHEIDESWIEEKKQELNDAFYYFNVPAEVQNVTEGPSVTRFELAVEKGVKVSRITALQDDIKMALAAKDIRIEAPIPGTSLVGIEVPNLNPTKVNLKSILESPKFKNAESKLTVAMGNRINNEPLLMDIAKTPHALIAGATGSGKSVCINSILMSLLYKNHPEELRLLLIDPKMVELAPYNDLPHLVSPVITDVKAATQSLKWAVDEMEKRYKLFAQFHVRNITAFNKKAPYEQRMPKIVIVIDELADLMMMAPQEVEQSIARIAQKARACGIHMLVATQRPSVNVITGLIKANIPTRIAFMVSSSVDSRTILDSGGAERLLGYGDMLYLGSGMNKPIRVQGTFVSDDEIDDVVDFIKDQREPDYLFEEKELLKKNQTQAQDELFDDVCEFMVKEGHISTSLIQRHFQIGYNRAARIVDQLEQLDYISGANGSKPRDVFITEADLKKE”, the protein production result is “failed”.

On to “MSYAGDITPLQAWEMLSDNPRAVLVDVRCEAEWRFVGVPDLSSLGREVVYVEWATSDGTHNDNFLAELRDRIPADADQHERPVIFLCRSGNRSIGAAEVATEAGITPAYNVLDGFEGHLDAEGHRGATGWRAVGLPWRQG”, for which the protein production entry is reported as “not failed”.

Take “MSYFYKHCLKFSLVGLLGLLSVQLDARSFVDGDLDIQKFSYEDSLLKKGDPNGVHKVQVRDYKGKMQEAEIHSEIRIALKPGVKKEVKKGKIYSAQINDGMCYAFRMLQTGDNTTGLDSKEFPKQSREKKGRVITLIGKGEVPYLILETDCQVGDIAKISLVGNFDGTGFLTEYKFKDAKPIY”: the protein production result was “failed”.

On to “MSYGLIIVLMIILGIGLWHTKKYHRAVVNQVAHVWITKNAFEHTALGMAIVSPDCRFLKVNRAYGEITGYTRPELLKMAVKELTHPEDQEKDTPYLQEVFAGNIHSFTTVKRYIHKNGSTIWVRSTISAVRTERGNLKYFVAQIQDMTIAKNAEDELRKSRDNAEVLARTDYLTKTLNRRAFIERLQEELERTKRTQEGFAMILVDIDYFKKVNDQFGHLAGDYVLQKFADCLSNNVRPYDFIGRYGGEEFIICLPDTDVEQAALVAERMRESVEALEVDYLHAQIKVTGSFGVAVYDSHSSDTLDELIEKADGAMYVAKNHKNTVYQWVS”, for which the protein production entry is reported as “failed”.

Take “MSYLDNVRVFVRVVELGTLSAAGRDQRVTPAVASNRIKELERHMGVRLFNRTTRKLTPTEHGRVFYEGAVKILEAVNEAESAIADLSRNPKGALKITAPLGIGRRLIAPGIPEFHDRYPDIEVRLRLSDHNVDILAEGVDIAFKLGILEDSNLRMRGIMNCDRVLCGSPRYFERRGIPSSPDDLLSHSHDCLLLRYPGSKEYYWTLQTPDGVRKFEVGGPYDSDDGDVLTQWALDGRGIVNKPLFEVKQHIDEGLLVPVLEETPPLGAQLAAIYPHKRFQDPKVRLMIDFMAERCQRLIGKMLAESAEVQERSSA”: the protein production entry is listed as “failed”.

As for “MSYLLRREEVVDVAGLQAMLEETPGKAAQAILAAAGQGVVEAQLLLGQILLDGRGIQQDATVARRWFGIAAQGGSAMAHNMLGRCLEHGWGGEVNLVQAAVHYARAADSGLDWGLYNLGNLLATGRGVPANQVQALMCYEKAAQLGHAKSMNLYGRYLEQGIATAPSPARAVRWYRRSAEAGDFRGMFSLALVLVERGQLAEAGQWLEQARVAGNMNFLRAALVTLQDAGPVLMAFAARYAEEIDRREEAGTGEHT”, the protein production result is reported as “failed”.

As for “MSYSWKKILIKPESTVVDALRVIDNEALRIALVVNDEQQLLGVVTDGDIRRGLLNNLPLETPVVDIMSRSPITASVNTAKEQLVKLMESKSILAVPLMEENKVVGLETLHHLFEEKTYHNPVFIMAGGFGTRLRPLTDTCPKPMLKIGNKPILETVIRSFIKAGFVNFYISTHYMPEQIQNHFGDGSELGVKISYVHEDSPLGTGGALGLLPDDLPQDLPLIMMNGDVLTKVDFERLLDFHTENQADATMCVREYDYQIPYGVINGKGNKITSMVEKPIQRFFVNAGIYVVSPSVIQSVPKNHHIDMPTLLEQHMNERDNILMFPIHEYWLDIGRMDDFNRAQADIHTLGLDLEHHHHHH”, the protein production entry is given as “failed”.

For the sequence “MTAAENIQEQLYPAPIKTVEEGSPAARAGVRPGDVLLRVNGQPVTDVLAYRHQLERGVVTLEVARPHEAPRVMTGVAGTAQDHHRLMLPQPPSLDETLTFTVEWEDPGLDFEEVLFDGIKKCANKCDFCYVHQMPRGFRKSLYIMDDDYRLSFLYGSFVTLTNLTEGDINRILDENLSPLYVSVHTANQDLRQDMMKWWKLKVKDPQAVQIREMIERLESIDLYTQIVLVPERNDRENLDETVEYLSSRPNVISAAVVPIGLTAHRTNLPDVRTFTPEEAQDTLRRLNVWRRKFLAERGTRFIFPSDELYLLAGEPLPTEEEYEGFPMLENGVGMIRDFLTEALPPLPAALPEPRKVILGTGLLFADSLARAIEPLRQIEGLDIEVRAIENKTFGKVTTVAGLLTGRCFRHAVQPGEADLLIVPPTTLRYGTELMIDDTSLGELRRELKMDVRAGGATLGELARVVLEGAQSSGHQFGMSAHAVKDSGRDDVAPSASRAQGGAAPEESLEEDVAESGMHGRGQA”, the protein production entry is “failed”.

As to “MTAARSAPSPAGAPRPGLRERKKTRTREAIRAATYGLIRQQGYEATTVEQIAERAEVSPSTVLRYFPTREDIVLTDEYDPVMAAELAARPAGEPWSDSLRHVLRKALGLGAGEEAELIRLRTRLLAEVPAVRARMLENMSDTGRMLARAIADRTGLDPDGLEVRIVSMSLVGGLMEVSRYWAEHDHEESLAELVDRALDALENGLPALRESDRESDREGDRGGHREDRREGPRKD”, the protein production entry was “not failed”.

Consider “MTAAVARALTLWGLDGASYELAAQRENEVWKVSDGTRHYALRFHRPAYRSEAELTSELLWVEMLGQAGMQVPQPVRQPDGAVLGRIEGRHVSLLDWLGGRPLGKMGQLAPDLDAEAVGRMIGAQMARMHDLSDRWTPPAGFQRPDWRRSGLLGADPLWGRFWEHPDLDPAQRQLMIATRERALACFEDFAPGADQGLIHADLVVENVLVDHDRVAFIDFDDGAWGYRDFDLATVLVKFIGQPDYDRLRAGLCAGYDARRRVEPGTLDFMLLLRALTYPGWIMSRLDEPGGRQRSARMLDTALRLARDFMEERQR”, for which the protein production result is listed as “failed”.

With “MTAFRCLITGLTWLAKPGIRRYVWIPLAVNLVLYGLGLWLGIRYFSAFLNWMLPGWLDFLRWLLWPVFAVGFFTVMYFTFSVLANIIGSPFYGVLAERTAELATGRRIRPAGVAGEVGMWSALRSEFRRLAYLGLRIVPLAALFLVPVVNLVAPVLWMLFNAWFMALEYTAYPLEARGYDFDHQRSLLGRFRLGAATFGGTVLLAQTIPLLNVLAAPAAVIGATLYLLELPVEE”, the protein production entry is on record as “failed”.

As to “MTAHPPRPELQIDIVSDVVCPWCIVGFRQLDQALAATGVLARLRWHPFELNPQMGPEGQNLREHIMEKYGSTPEQSAEARARLTAIGAELGFTFNFTDDSRIVNTFAAHQLLDWAEGQGRQHPLKQALFAAYFTDGRDVSDLSVLLDAVEAAGLDREAAQTALTSGAHQAPVREKQKFWAQHGISGVPSMVFGGKYLLTGAQGADTYAQVIQRCLAEA”, the protein production result is given as “not failed”.

“MTAIDGQGKDQVIFVTKEEHETPSTVKQEEEDTNEDPKGKGLILPTGEINWDCPCLGGMASGVCGEQFKSAFTCFHFSQEEVKGSDCLEQFISMQECFHQHPELFPQDNNDLQTADPDQEHSSSISDFTTNKESDSLPTETDEIPTQLPVVS”: the protein production entry is recorded as “not failed”.

As for “MTAKPTIAFSHLGCEKNRIDTEHMIGLLAEAGYGIDANEALADVVVVNTCSFIQAAREESVRTLVELAESGKKIVIAGCLAQHFQDQLLAELPEAIALVGTGDYHRIVDVLQRTESGERVNAISQEPSFIADENLPRYRTTTSAVAYLRVAEGCDYRCAFCIIPHLRGKQRSRSIESIVAEAKQLAAEGVQELVLISQITTNYGLDRYGKPMLAELLRQLGQVDVPWIRIHYAYPTGLTPEVIAAIRETHNVLPYLDLPLQHSHPEILKAMNRPWQGNVNDRIIEKLKEALPDAVLRTTFIAGFPGETEEHFRHLQQFIQRHEFDHVGVFAFSPEEGTAAIDLPNPVPDDVKEARRDALMATQQPIAERRNRAQIGRLVDVLIEQEHPSTGLKIGRSARFAPEVDGVVYVQGDAALGQLVTVRITDADIYDLHGEVASAADLFQASRQPSLA”, the protein production entry is “failed”.

In the case of “MTAPAPQTKNAAWGWVLLAGLFEVGFTYALKMSQHDGKYLGLFLLCAIVSFECLAQALKTLPVGLAYAVWTGIGSVGTILVGLVLFGDSLSALRLGLLTVLIGSIAGLKIVDR”, the protein production entry is recorded as “failed”.

Turning to “MTAPEPSRDAKRLVRIDGVTKRFGDAPPALDAVSGAIGGGAITGLVGPDGAGKTTLIRLMTGLMLPDTGTMNVLGFDTRKNAAGIQAAIGYMPQRFGLYEDLSVQENLDLYADLRGLPKSERAGAFDELLTFTDLKRFTTRLAGKLSGGMKQKLGLACALLKKPRLLLLDEPGVGVDPISRRDLWKMVENLTKEGIGVVWSTAYLDEAEACDHVLLLNQGKLLFSGKPDEMTERVSDRVFRVSDVTGRRRQVLAELLQADGVIDGVIQGEAIRLVAANGKTPDIGKAGDGALLSPAPPRFEDAFVDMLGGGPGGRSRLAEAQEPLKAEGDRPVIEAKGLTKRFGDFTAADDISFDIRRGEIFGLLGPNGAGKSTTFKMLCGLLKPTGGEGRVAGFDLRRDAAEARNQLGYMAQKFSLYGDLTVMQNLEFFAGVYGLRGQRRHERIELMTEIFDFGRHAREPAKDLPLGLKQRLALACAVMHEPRALFLDEPTSGVDPITRREFWTHINGLVEKGVTVLVTTHFMDEAEYCDRISLIYRGRSIALGSPDELKARVATKNGPDPTMEDAFIALVQQSEAEDAA”, the protein production result is reported as “failed”.

“MTAPGSVPLTVIGGFWGAGKTTLLNYLLKVQHSERVLVMVNDFGSINIDAELLDQGRHDRPGVVRLQNGCVCCSIGGDLMQAFLQVMSMPDRPDRIIVEASGVADPTRIAQIGRVSGGLSDEGVITLVDASAVRALAADKYVGDIVRQQILSADIVLLNKLDLSSDAEIVETRAWLRDLAPRTRVVSCIHGEVDAVSVLGIGAGKVAPDTAGGPVDVPVPDLRRASTRHADTFHSSTLATEHRFDRRRIEYALDALPQTVLRGKGFVELEGEATPALLQLCGSRWTLDPVSTPAPPAGTHLVFIATGGRGVPRFDAPSHFEQALASRDAASADTSNLEHHHHHH”: the protein production entry was “failed”.

For “MTAQKMSAQEIIAFIGNAEKKTNVKVTFEGALAAALPENVVKLGNVLFGDWKDIEPLLANLTENKDYVVEQDGRNSAVPLLDK”, the protein production entry is reported as “not failed”.
